Measurements: patent publication US10398755B2, “Clusterin pharmaceuticals and treatment methods using the same” (UNIVERSITY OF SOUTHERN CALIFORNIA, priority 2009, dated 2019)

Legend:
[1] = molecular target: T1, pro-MMP-9, MMP-9, MMP-9-ΔC (Mus musculus, UniProt P41245); experiment: In vitro protein binding assay (CLU-His pull-down, gelatin zymography), MMP-9 forms
T1 construct: mixture of 30-100 ng of pro-MMP-9, MMP-9, and MMP-9-ΔC; pro-MMP-9, propeptide-cleaved MMP-9 (MMP-9), and MMP-9 with both propeptide and C-terminal region cleaved (MMP-9-ΔC); MMP-9 with both propeptide and C-terminal region cleaved (MMP-9-ΔC); purchased R&D Systems; host or cells: mouse myeloma cell line (NSO)
Procedure: (§1) (A) Recombinant proteins, Pro-MMP-9, MMP-9, MMP-9-ΔC, CLU-His were incubated together, and bound to agarose beads coupled or uncoupled with Anti-(His)6 antibody in two different binding buffers containing Brij 35 concentrations, 0.04% or 0.002%. MMPs bound to the beads were obtained by washing with the corresponding binding buffer to resolve on gelatin zymography. Three different volumes of each sample were loaded to compare the relative density. (B) Pro-MMP-9 bound to CLU coupled to agarose beads, prepared as in (A), was incubated in the presence or absence of APMA for 1 h at RT, prior to separation of beads (B) and supernatant (S) fractions, which were resolved by zymography. Arrow indicates MMP-9 processed by APMA.
(§2) A mixture of MMP-2, MMP-9, and C-terminal truncated MMP-9 (9-ΔC) was incubated with His-tagged CLU, used in a pull-down assay and resolved on a gelatin zymography gel. The input and bound samples were loaded in a series of dilution.
(§3) To make various processed forms of MMPs, pro-MMPs were incubated with 1 mM APMA in TSCB buffer at 37° C. for 4 h to make C-terminal truncated processed MMP-9 (MMP-9-ΔC) [Murphy, 1995]. CLU-His (2.5 μg) was incubated with mixture of 30-100 ng of pro-MMP-9, MMP-9, and MMP-9-ΔC, in the TSCB buffer with 0.002 or 0.04% Brij 35 for 1 h at 4° C. followed by additional incubation for 1.5 h with anti-His tag antibody-conjugated agarose beads. The beads were washed three times with the binding buffer, and dissolved in 1×SDS sample loading buffer. Relative amounts of bound MMPs were assessed on the gelatin zymography. In order to perform CLU binding domain analysis, pro-MMP-9 bound to CLU-coupled beads was prepared, as described above, and then divided into two aliquots. They were incubated with and without 1 mM APMA at RT for 1 h in TSCB buffer on the rotator. The beads (B) were spun down and solution (S) was separated. The beads were washed with TSCB and resuspended in SDS sample loading buffer. Equivalent volume of S and B fraction were subjected to gelatin zymography.
(§4) Next, we tested the interaction of secreted CLU using mouse recombinant proteins. We used purified recombinant proteins of MMP-2, MMP-9, and CLU that were secreted from a mouse myeloma cell line (NSO). All of the proteins were purchased from R&D Systems. A mixture of MMP-2, MMP-9, and C-terminal truncated MMP-9 (9-ΔC) was incubated with His-tagged CLU, and subjected to the pull-down assay, using 150 mM NaCl-containing binding buffer and anti-His tag antibody resins. Portions of the input samples (Input) and proteins bound to the antibody (Bound) were resolved on the gelatin zymography gel.
(§5) The recombinant CLU contains a (His)6-Tag at the C-terminus of the protein, which was used for pull-down experiments with anti-His tag antibody beads. It was previously reported that CLU also binds to MT6-MMP/mmp-25 and that the hemopexin domain in the MMP C-terminal region is required for their interaction (Matsuda et al., 2003). To use as an internal control for the binding experiment, we removed part of MMP-9 (MMP-9-ΔC) by promoting self-processing by APMA (4-aminophenylmercuric acetate) treatment. For the in vitro binding assay we mixed MMP-2, MMP-9, and MMP-9-ΔC (FIG. 7).
(§6) Since different detergent concentrations affected the extent of inhibition of MMP-9 activity by CLU, we tested whether detergents may influence the binding affinity of CLU for MMP-9. To test this possibility, CLU pull down assay was performed. […]

[2] = test system: pro-MMP-9, MMP-9, MMP-9-ΔC; experiment: as above; parameters: species or system mouse
Procedure: as §1, §2, §3, §4, §5, §6

T1 sequence (P41245 20-730, stated change not applied): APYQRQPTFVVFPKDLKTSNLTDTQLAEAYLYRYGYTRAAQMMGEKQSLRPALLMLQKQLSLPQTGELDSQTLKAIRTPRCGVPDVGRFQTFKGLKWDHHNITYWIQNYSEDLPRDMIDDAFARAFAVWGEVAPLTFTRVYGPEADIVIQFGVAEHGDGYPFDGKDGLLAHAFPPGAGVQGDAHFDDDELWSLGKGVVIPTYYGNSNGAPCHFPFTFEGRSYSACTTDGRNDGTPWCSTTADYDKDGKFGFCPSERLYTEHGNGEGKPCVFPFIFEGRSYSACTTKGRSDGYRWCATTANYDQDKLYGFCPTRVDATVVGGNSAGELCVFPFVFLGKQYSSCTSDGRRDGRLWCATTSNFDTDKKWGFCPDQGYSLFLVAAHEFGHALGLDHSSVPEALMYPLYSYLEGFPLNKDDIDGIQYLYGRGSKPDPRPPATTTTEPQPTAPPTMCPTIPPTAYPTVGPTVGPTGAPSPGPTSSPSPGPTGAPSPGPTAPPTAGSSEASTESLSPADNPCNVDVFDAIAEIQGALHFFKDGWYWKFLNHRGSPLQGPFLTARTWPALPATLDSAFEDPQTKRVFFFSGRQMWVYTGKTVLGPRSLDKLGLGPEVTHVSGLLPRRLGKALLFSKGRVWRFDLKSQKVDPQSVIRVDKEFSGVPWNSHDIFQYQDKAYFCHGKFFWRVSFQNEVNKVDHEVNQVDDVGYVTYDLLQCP

- affinity of pro-MMP-9 for CLU relative to the other forms of MMP-9 ([1]; band densities, Image J): at least 10 times
- binding of C-terminal truncated MMP-9 to His-tagged CLU ([2]; 150 mM NaCl binding buffer): did not
- binding of MMP-9 to His-tagged CLU (bound vs input) ([2]; 150 mM NaCl binding buffer): highly enriched in the bound sample
B1: CLU: secreted disulfide-linked heterodimeric glycoprotein (70-80 KD); assays used recombinant mouse CLU with C-terminal (His)6 (protein, UniProt Q06890 22-448, looked up)
Clusterin: EQEVSDNELQELSTQGSRYINKEIQNAVQGVKHIKTLIEKTNAERKSLLNSLEEAKKKKEDALEDTRDSEMKLKAFPEVCNETMMALWEECKPCLKHTCMKFYARVCRSGSGLVGQQLEEFLNQSSPFYFWMNGDRIDSLLESDRQQSQVLDAMQDSFARASGIIDTLFQDRFFARELHDPHYFSPIGFPHKRPHFLYPKSRLVRSLMSPSHYGPPSFHNMFQPFFEMIHQAQQAMDVQLHSPAFQFPDVDFLREGEDDRTVCKEIRRNSTGCLKMKGQCEKCQEILSVDCSTNNPAQANLRQELNDSLQVAERLTEQYKELLQSFQSKMLNTSSLLEQLNDQFNWVSQLANLTQGEDKYYLRVSTVTTHSSDSEVPSRVTEVVVKLFDSDPITVVLPEEVSKDNPKFMDTVAEKALQEYRRKSRAE
modifications: C-terminal His6 tag
- sensitivity of pro-MMP-9 affinity for CLU to detergent concentration ([1]; 0.002% vs 0.04% Brij 35): not sensitive to the detergent concentration
- binding of MMP-9 and MMP-9-ΔC to CLU at high detergent ([2]; 0.04% Brij 35): do not bind to CLU at the high Brij 35 concentration
